Results as given in EP1870419A2 (Praecis Pharmaceuticals Incorporated, dated 2000).
Square brackets hold non-standard residues; d marks the D form. dPhe(4-F) = N[C@H](Cc1ccc(F)cc1)C(=O)O

Each binder was assayed against T1, Aβ1-40 peptide (natural β-amyloid peptide, β-AP1-40) (In the fibril binding assay the peptide stood as aged fibrils (many copies, number not stated). In the nucleation assay [CUT]) (assay: cell-based or functional assay).
H-[dL][dF][dK][dV][dL]-NH2 (also: TFA salt) [PPI 1321: 2TFA·H-(lfkvl)-NH2] was tested, and the “Nucleation assay data (Δlag), 0.3 µM compound” value was < 1 fold of control lag time, the “Nucleation assay data (Δlag), 1 µM compound” value was < 1 fold of control lag time and the “Nucleation assay data (Δlag), 3 µM compound” value was < 1 fold of control lag time. For H-[dL][dF][dPhe(4-F)][dV][dL]-NH2 (also: TFA salt) [PPI-1319: TFA·H-(lf-[p-F]f-vl)-NH2], the “Nucleation assay data (Δlag), 0.3 µM compound” value was 1 fold of control lag time, the “Nucleation assay data (Δlag), 1 µM compound” value was > 5 fold of control lag time and the “Nucleation assay data (Δlag), 3 µM compound” value was > 5 fold of control lag time.

Biological target: T1, Aβ1-40 peptide (natural β-amyloid …)
Experiment: cell-based or functional assay
Remark: another data set of the same source
{N,N‑dimethyl}-G[dA][dF][dF][dV][dL]-NH2 (also: TFA salt) [PPI 803: TFA·N,N-dimethyl-(Gaffvl)-NH2] was tested, and the “Nucleation assay Δlag, 1.25 µM compound” value was < 1 fold of control lag time, the “Nucleation assay Δlag, 2.5 µM compound” value was < 1 fold of control lag time and the “Nucleation assay Δlag, 5 µM compound” value was < 1 fold of control lag time. For {N‑isopropyl}-G[dA][dF][dF][dV][dL]-NH2 (also: TFA salt) [PPI 970: TFA·N-isopropyl-(Gaffvl)-NH2], the “Nucleation assay Δlag, 1.25 µM compound” value was 1 fold of control lag time, the “Nucleation assay Δlag, 2.5 µM compound” value was > 5 fold of control lag time and the “Nucleation assay Δlag, 5 µM compound” value was > 5 fold of control lag time. For {N,N‑diethyl}-G[dA][dF][dF][dV][dL]-NH2 (also: TFA salt) [PPI 1005: TFA·N,N-diethyl-(Gaffvl)-NH2], the “Nucleation assay Δlag, 1.25 µM compound” value was 1 fold of control lag time, the “Nucleation assay Δlag, 2.5 µM compound” value was 3 fold of control lag time and the “Nucleation assay Δlag, 5 µM compound” value was 3 fold of control lag time. With {N,N‑diethyl}-[dA][dF][dF][dV][dL]-NH2 (also: TFA salt) [PPI 1006: TFA·N,N-diethyl-(affvl)-NH,] the “Nucleation assay Δlag, 1.25 µM compound” value was 1 fold of control lag time, the “Nucleation assay Δlag, 2.5 µM compound” value was 1 fold of control lag time and the “Nucleation assay Δlag, 5 µM compound” value was 1 fold of control lag time. {N‑methyl}-G[dA][dF][dF][dV][dL]-NH2 (also: TFA salt) [PPI 968: TFA·N-methyl-(Gaffvl)-NH2] was tested, and the “Nucleation assay Δlag, 1.25 µM compound” value was 2 fold of control lag time, the “Nucleation assay Δlag, 2.5 µM compound” value was > 5 fold of control lag time and the “Nucleation assay Δlag, 5 µM compound” value was > 5 fold of control lag time. {N,N‑dimethyl}-[dA][dF][dF][dV][dL]-NH2 (also: TFA salt) [PPI 913: TFA·N,N-dimethyl-(affvl)-NH2] was tested, and the “Nucleation assay Δlag, 1.25 µM compound” value was 1 fold of control lag time, the “Nucleation assay Δlag, 2.5 µM compound” value was 1 fold of control lag time and the “Nucleation assay Δlag, 5 µM compound” value was 1 fold of control lag time. H-[dL][dV][dF][dF][dA]-NMe2 (also: TFA salt) [PPI 993: TFA·H-(lvffa)-dimethylamide] was tested, and the “Nucleation assay Δlag, 1.25 µM compound” value was 1 fold of control lag time, the “Nucleation assay Δlag, 2.5 µM compound” value was 1 fold of control lag time and the “Nucleation assay Δlag, 5 µM compound” value was 1 fold of control lag time.
